In US8859492:
Where no end group is shown, it is not given here. [ ]: non-standard residue; d: D form. Cha = N[C@@H](CC1CCCCC1)C(=O)O

Key:
[1] = biological target: T1, S. aureus sortase A (S. aureus), Q2FV99; assay: cell-based or functional assay
T1 chain: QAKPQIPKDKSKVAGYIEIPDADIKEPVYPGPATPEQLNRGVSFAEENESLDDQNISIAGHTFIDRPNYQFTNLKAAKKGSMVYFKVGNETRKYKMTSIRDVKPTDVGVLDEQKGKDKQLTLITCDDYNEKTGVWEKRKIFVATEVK

[2] = biological target: HCV protease (hepatitis C virus); assay: cell-based or functional assay
[3] = biological target: HCV protease (hepatitis C virus); assay: apparent binding affinity; method not described
[4] = biological target: T2, Co-GGH-lisinopril
T2 chain: GGH

[5] = biological target: T3, Cu-GGH-lisinopril
T3 chain: GGH

[6] = biological target: T4, [Cu-GGH]^1-
T4 chain: GGH

[7] = biological target: T5, Ni-GGH-lisinopril (not fully specified)
T5 chain: GGH

[8] = biological target: HCV protease (hepatitis C virus); assay: binding/inhibition curve of FIG. 1 (left); method not described

Binder GGHLPET (modifications not checked) [Cu-GGHLPET (SEQ ID NO: 102)] has an activity for catalyst concentration of 1 µM [1] of 0.009.

For GGHGLPET (modifications not checked) [Cu-GGHGLPET (SEQ ID NO: 104)], the activity for catalyst concentration of 1 µM [1] was 0.027.

Binder GGHLPETG (modifications not checked) [Cu-GGHLPETG (SEQ ID NO: 103)] has an activity for catalyst concentration of 1 µM [1] of 0.017.

GGHGD[dE]LI[Cha]T (also: Cu complex) [Cu-GGHGDeLI(Cha)T] gave a kinact [2] of 0.042 min⁻¹ and a Ka [3] of 33000 M⁻¹.

B1: Recombinant human somatic ACE (sACE-1: Leu30-Leu1261, with C-terminal His tag) (protein)
chain: LDPGLQPGNFSADEAGAQLFAQSYNSSAEQVLFQSVAASWAHDTNITAENARRQEEAALLSQEFAEAWGQKAKELYEPIWQNFTDPQLRRIIGAVRTLGSANLPLAKRQQYNALLSNMSRIYSTAKVCLPNKTATCWSLDPDLTNILASSRSYAMLLFAWEGWHNAAGIPLKPLYEDFTALSNEAYKQDGFTDTGAYWRSWYNSPTFEDDLEHLYQQLEPLYLNLHAFVRRALHRRYGDRYINLRGPIPAHLLGDMWAQSWENIYDMVVPFPDKPNLDVTSTMLQQGWNATHMFRVAEEFFTSLELSPMPPEFWEGSMLEKPADGREVVCHASAWDFYNRKDFRIKQCTRVTMDQLSTVHHEMGHIQYYLQYKDLPVSLRRGANPGFHEAIGDVLALSVSTPEHLHKIGLLDRVTNDTESDINYLLKMALEKIAFLPFGYLVDQWRWGVFSGRTPPSRYNFDWWYLRTKYQGICPPVTRNETHFDAGAKFHVPNVTPYIRYFVSFVLQFQFHEALCKEAGYEGPLHQCDIYRSTKAGAKLRKVLQAGSSRPWQEVLKDMVGLDALDAQPLLKYFQPVTQWLQEQNQQNGEVLGWPEYQWHPPLPDNYPEGIDLVTDEAEASKFVEEYDRTSQVVWNEYAEANWNYNTNITTETSKILLQKNMQIANHTLKYGTQARKFDVNQLQNTTIKRIIKKVQDLERAALPAQELEEYNKILLDMETTYSVATVCHPNGSCLQLEPDLTNVMATSRKYEDLLWAWEGWRDKAGRAILQFYPKYVELINQAARLNGYVDAGDSWRSMYETPSLEQDLERLFQELQPLYLNLHAYVRRALHRHYGAQHINLEGPIPAHLLGNMWAQTWSNIYDLVVPFPSAPSMDTTEAMLKQGWTPRRMFKEADDFFTSLGLLPVPPEFWNKSMLEKPTDGREVVCHASAWDFYNGKDFRIKQCTTVNLEDLVVAHHEMGHIQYFMQYKDLPVALREGANPGFHEAIGDVLALSVSTPKHLHSLNLLSSEGGSDEHDINFLMKMALDKIAFIPFSYLVDQWRWRVFDGSITKENYNQEWWSLRLKYQGLCPPVPRTQGDFDPGAKFHIPSSVPYIRYFVSFIIQFQFHEALCQAAGHTGPLHKCDIYQSKEAGQRLATAMKLGFSRPWPEAMQLITGQPNMSASAMLSYFKPLLDWLRTENELHGEKLGWPQYNWTPNSARSEGPLPDSGRVSFLGLDLDAQQARVGQWL
B1 gave a second order rate constant for cleavage of full length sACE-1 (SDS-PAGE), ascorbate + H2O2 [4] of less than 1170 M⁻¹ s⁻¹, a second order rate constant for cleavage of full length sACE-1 (SDS-PAGE), H2O2 [5] of 250 M⁻¹ s⁻¹ and a second order rate constant for cleavage of full length sACE-1 (SDS-PAGE), ascorbate [5] of less than 100 M⁻¹ s⁻¹. It also gave a second order rate constant for cleavage of full length sACE-1 (SDS-PAGE), ascorbate + H2O2 [5] of 1170 M⁻¹ s⁻¹, a second order rate constant for cleavage of full length sACE-1 (SDS-PAGE), ascorbate + H2O2 [6] of less than 50 M⁻¹ s⁻¹ and a second order rate constant for cleavage of full length sACE-1 (SDS-PAGE), ascorbate [7] of less than 1000 M⁻¹ s⁻¹.

In the case of GGHGLPETG (modifications not checked) [Cu-… (SEQ ID NO: 105)], the activity for catalyst concentration of 1 µM [1] is reported as 0.012.

GGHGD[dE]LI[Cha]C-OH (also: Cu complex) [Cu-GGHGDeLI(Cha)C-CO2^-] showed a Ki [8] of 500 nM, a kinact [2] of 0.0014 min⁻¹ and a rate constant for inactivation kinact, in the presence of ascorbate/O2 [2] of less than 0.083 h⁻¹. It also gave a Ka [3] of 2e+06 M⁻¹.
